Biological target: T1, BCMA on BCMA-positive tumor cell lines (H929, RPMI-8226) (UniProt Q02223 1-184, limits assumed)
T1 sequence (looked up): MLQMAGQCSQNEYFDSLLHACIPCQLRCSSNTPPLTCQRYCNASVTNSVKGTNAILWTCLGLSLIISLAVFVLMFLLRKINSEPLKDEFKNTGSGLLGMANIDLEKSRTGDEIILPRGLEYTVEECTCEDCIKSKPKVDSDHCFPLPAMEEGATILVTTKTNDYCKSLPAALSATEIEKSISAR
Assay: cell-based or functional assay

B1: BCMA-CAR fusion polypeptide (receptor)
chain: QVQLVQSGAEVKKPGASVKVSCKASGYSFPDYYINWVRQAPGQGLEWMGWIYFASGNSEYNQKFTGRVTMTRDTSSSTAYMELSSLRSEDTAVYFCASLYDYDWYFDVWGQGTMVTVSSGGGGSGGGGSGGGGSDIVMTQTPLSLSVTPGEPASISCKSSQSLVHSNGNTYLHWYLQKPGQSPQLLIYKVSNRFSGVPDRFSGSGSGADFTLKISRVEAEDVGVYYCAETSHVPWTFGQGTKLEIKTTTPAPRPPTPAPTIASQPLSLRPEACRPAAGGAVHTRGLDFACDIYIWAPLAGTCGVLLLSLVITLYCRSKRSRLLHSDYMNMTPRRPGPTRKHYQPYAPPRDFAAYRSRVKFSRSADAPAYQQGQNQLYNELNLGRREEYDVLDKRRGRDPEMGGKPRRKNPQEGLYNELQKDKMAEAYSEIGMKGERRRGKGHDGLYQGLSTATKDTYDALHMQALPPR
% killing at a 0.625 ratio of effector T cells to tumor cells (one donor): > 50%

From patent US20250312376A1 (FLAGSHIP PIONEERING INNOVATIONS VI, published 2025)
